Molecular target: T1, IL-15 receptor (IL-15RβγC) on 32Dβ cells (human; mouse, UniProt P14784 27-551; P34902 23-369)
T1 sequence (looked up) 1: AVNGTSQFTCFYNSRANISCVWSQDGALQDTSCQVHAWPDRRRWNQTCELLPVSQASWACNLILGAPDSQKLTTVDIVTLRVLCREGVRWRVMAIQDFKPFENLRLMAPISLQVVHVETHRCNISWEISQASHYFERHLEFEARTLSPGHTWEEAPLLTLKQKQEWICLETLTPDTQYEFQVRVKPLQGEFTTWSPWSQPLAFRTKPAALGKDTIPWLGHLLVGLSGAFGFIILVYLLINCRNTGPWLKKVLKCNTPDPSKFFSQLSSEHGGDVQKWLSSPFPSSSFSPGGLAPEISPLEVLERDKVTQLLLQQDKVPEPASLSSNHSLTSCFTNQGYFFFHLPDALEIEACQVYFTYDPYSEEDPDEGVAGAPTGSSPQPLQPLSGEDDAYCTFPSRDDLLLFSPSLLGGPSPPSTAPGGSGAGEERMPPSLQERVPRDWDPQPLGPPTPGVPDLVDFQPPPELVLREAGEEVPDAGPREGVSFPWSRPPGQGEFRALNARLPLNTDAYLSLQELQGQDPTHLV
T1 sequence (looked up) 2: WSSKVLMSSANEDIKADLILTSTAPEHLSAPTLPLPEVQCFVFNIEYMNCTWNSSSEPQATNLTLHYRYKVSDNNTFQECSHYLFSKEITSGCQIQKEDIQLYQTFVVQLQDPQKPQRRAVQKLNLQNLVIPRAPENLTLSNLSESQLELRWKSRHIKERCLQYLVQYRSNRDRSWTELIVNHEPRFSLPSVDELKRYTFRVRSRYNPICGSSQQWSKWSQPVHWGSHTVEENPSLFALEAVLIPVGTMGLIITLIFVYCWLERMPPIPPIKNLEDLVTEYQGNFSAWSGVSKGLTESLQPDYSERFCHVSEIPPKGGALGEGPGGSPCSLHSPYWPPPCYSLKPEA
Assay: cell-based or functional assay

B1: IL-15N72D:IL-15RαSu/Fc complex (Alt-803) (Fc fusion)
chain 1: PELLGG
chain 2: PEAAGG
IL-15 dependent 32Dβ cell proliferation, EC50: 0.0156 nM

B2: in vitro assembled IL-15N72D:IL-15RαSu/Fc complex (IL-15N72D:IL-15RαSu/Fc IVA) (Fc fusion)
chain 1: PELLGG
chain 2: PEAAGG
IL-15 dependent 32Dβ cell proliferation, EC50: 0.0158 nM

Source: patent US20260092097A1 (ALTOR BIOSCIENCE, published 2026)
